According to US11840557B2, “Wnt7 variants capable of activating g-protein coupled receptor (Gpr)124/Reck/frizzled/lipoprotein receptor-related protein (LRP)-mediated Wnt signaling” (UNIVERSITÉ LIBRE DE BRUXELLES, priority 2018, dated 2023):
Values belong to the molecule of their own block, whether it stands above or below them. Ends that are not written are not given here.

Assays:
Reck-CK-Fc = assay: Isothermal titration calorimetry (ITC) of synthetic Wnt linker peptides into recombinant Reck-CK-Fc; format: binding
Experimental: Reck-CK-Fc fusion proteins were recovered in serum-free FreeStyle 293 Expression Medium (Thermo Fisher Scientific, Waltham, Mass.) from the supernatant of HEK293T cell cultures 72 h post transfection with Lipofectamine 2000 (Life Technologies, Carlsbad, Calif.). After collection, the supernatants were either concentrated 50 times by centrifugation (GE Healthcare, Little Chalfont, UK) or submitted to Protein G affinity purification (Protein G Sepharose 4 Fast Flow, Sigma-Aldrich, St. Louis, Mo.). Protein purity was assessed using Coomassie blue staining after PAGE. Synthetic Wnt linker peptides were obtained from Chinapeptide Co., Ltd at purities over 90%.
ITC titrations were carried out on an Affinity ITC (TA Instruments). Prior to the measurement, Reck-CK-Fc and all Reck-CK-Fc fusions were dialyzed to Tris-NaCl buffer (50 mM Tris pH8, 300 mM NaCl). In each case Wnt-derived peptides were prepared with buffer from the last step of protein dialysis. The samples were filtered and degassed before being examined in the calorimeter and the titrations were performed 25° C. All the experiments consisted of injection of constant volumes of 2 μL of titrant into the cell (200 μL) with a stirring rate of 75 rpm. Nominal sample concentrations were between 20 μM and 40 μM in the cell and 400 μM to 1.0 mM in the syringe. Actual sample concentrations were determined after dialysis or buffer exchange by measurement of their absorption at 280 nm or the BCA method. All data were analyzed using the MicroCal Origin ITC 7.0, and NanoAnalyze software packages.

HA-Reck = target: T1, HA-Reck (Homo sapiens, UniProt O95980); assay: Proximity ligation assay (PLA), anti-V5/anti-HA, V5-tagged Wnt ligand and HA-Reck in GPR124−/−;RECK−/− cells; format: cell-based; conditions: GPR124−/−;RECK−/− cells co-expressing HA-Reck
T1 construct: expressed in transfected cells; host or cells: GPR124-/-;RECK-/- HEK293 (STF) cells, pCS2 / CMV promoter
T1 sequence (O95980 23-942): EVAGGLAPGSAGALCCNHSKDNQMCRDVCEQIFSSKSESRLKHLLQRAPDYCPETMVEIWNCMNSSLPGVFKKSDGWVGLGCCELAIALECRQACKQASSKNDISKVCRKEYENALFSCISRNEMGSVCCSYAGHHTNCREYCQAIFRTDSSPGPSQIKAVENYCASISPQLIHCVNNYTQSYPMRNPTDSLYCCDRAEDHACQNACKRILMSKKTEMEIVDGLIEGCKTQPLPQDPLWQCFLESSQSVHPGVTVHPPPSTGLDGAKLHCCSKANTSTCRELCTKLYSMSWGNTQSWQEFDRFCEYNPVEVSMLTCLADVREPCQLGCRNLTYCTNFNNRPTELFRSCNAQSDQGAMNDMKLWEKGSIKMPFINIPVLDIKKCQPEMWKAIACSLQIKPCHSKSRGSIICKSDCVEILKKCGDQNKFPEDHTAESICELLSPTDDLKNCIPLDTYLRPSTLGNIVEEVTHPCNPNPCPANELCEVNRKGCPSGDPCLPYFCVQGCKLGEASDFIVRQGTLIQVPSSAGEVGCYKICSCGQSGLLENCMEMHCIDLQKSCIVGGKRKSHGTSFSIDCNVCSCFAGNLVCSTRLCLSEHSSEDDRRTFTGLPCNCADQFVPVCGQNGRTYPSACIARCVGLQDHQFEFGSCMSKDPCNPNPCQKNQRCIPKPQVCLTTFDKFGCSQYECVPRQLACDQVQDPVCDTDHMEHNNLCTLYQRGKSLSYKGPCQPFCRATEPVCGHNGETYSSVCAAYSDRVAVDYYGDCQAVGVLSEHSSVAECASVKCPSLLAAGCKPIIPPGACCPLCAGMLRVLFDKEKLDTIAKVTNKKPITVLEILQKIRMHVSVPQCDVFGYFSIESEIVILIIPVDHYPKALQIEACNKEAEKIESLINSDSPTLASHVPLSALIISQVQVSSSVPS
Experimental: (§1) 1.7. Immunofluorescence and Proximity Ligation Assay Cells were grown in glass-coated chambers (IBIDI, Martinsried, Germany) and transfected after 24 h with Lipofectamine 2000 (Life Technologies, Carlsbad, Calif.). Cells were fixed with 4% paraformaldehyde for 10 min at room temperature (RT) 48 h post transfection. For immunofluorescence staining (IF), cells were blocked in 1% BSA-PBS for 30 min before being exposed to primary antibodies for 1 h at RT. After three PBS washes, cells were incubated with secondary antibodies for 1 h at RT. For anti-V5 staining of Wnt ligands, cells were additionally washes for 10 min in PBS 0.1% Tween 20 before incubation with the secondary antibody solution. For the proximity ligation assay (PLA) (Sigma-Aldrich, St. Louis, Mo.), cells were blocked for 30 min at 37° C. with the Blocking solution provided by the manufacturer before being incubated with the primary antibodies for 1 h at RT. Cells were washed three times and incubated with the PLA probes anti-rabbit PLUS and anti-mouse MINUS for 1 h at 37° C. After two PBS washes, cells were incubated with the Duolink Ligation solution for 30 min at 37° C. After two PBS washes, cells were incubated with the Duolink Amplification solution for 100 min at 37° C. The following antibodies were used: mouse monoclonal anti-V5 (R96025, Life Technologies, Carlsbad, Calif.) at 1:500 for IF and PLA, purified polyclonal rabbit anti-HA (H6908, St. Louis, Mo.) at 1:400 for IF and PLA and anti-mouse Alexa488-conjugated secondary antibody (Thermo Fisher Scientific, Waltham, Mass.) at 1:5000. Cells were stained for 2 min with Hoechst diluted to 10 μg ml-1 in PBS.
Cells and zebrafish embryos were imaged with an LSM710 confocal microscope and images were processed in ImageJ. Images of eye fusion phenotypes were taken on Leica M165 FC. Representations of brain vasculature were generated using Imaris software (BitPlane, Zurich, Switzerland). The percentage of PLA positive (PLA+) areas and DAPI positive (DAPI+) areas were calculated using ImageJ on images containing about 50 to 100 cells. The PLA+ area was measured after manually applying a fixed threshold. The DAPI+ area was measured after applying the “default” thresholding method in Image J.

[1] = test system: plasma membrane of HEK293 cells; assay: Anti-V5 immunostaining of transiently expressed V5-tagged Wnt ligands in non-permeabilized cells; format: cell-based, human
Experimental: as §1, with “After two PBS washes, cells were incubated with the Duolink Amplification solution for 100 min at 37° C. The following antibodies were used: mouse monoclonal anti-V5 (R96025, Life Technologies, Carlsbad, Calif.) at 1:500 for IF and PLA, purified polyclonal rabbit anti-HA (H6908, St. Louis, Mo.) at 1:400 for IF and PLA and anti-mouse Alexa488-conjugated secondary antibody (Thermo Fisher Scientific, Waltham, Mass.) at 1:5000. Cells were stained for 2 min with Hoechst diluted to 10 μg ml-1 in PBS.” left out
It was determined how Wnt7 is specifically recognized within this signaling module, a question inherently complicated by the ubiquitous expression of Frizzled receptors and their Lrp5/6 co-receptors in vertebrate cells. […]

Kd (Reck-CK-Fc; 25° C., Tris-NaCl buffer pH8, read-out: affinity of binding to Reck (ITC)): 1200 nM
Molecule: VEVVRASRLRQPTFLRIKQLRSYQKPMET [pWnt7b]
Reck CK motifs required for binding (ITC with Reck-CK-Fc deletion variants) (Reck-CK-Fc; Reck-CK^ΔCK1-Fc to Reck-CK^ΔCK5-Fc): required Reck CK4 and CK5, but not CK1, CK2 and CK3

binding to Reck-CK-Fc (ITC) (Reck-CK-Fc; 25° C.): no binding
Molecule: pWnt3a: control equivalent linker peptide of Wnt3a (MVVEKHRESRGWVETLRPRYTYFKVPTER) [reference compound]

Reck binding (anti-V5/anti-HA PLA signal) (HA-Reck): did not bind Reck
B1: Wnt71-237: smaller NTD variant lacking the linker region (protein)
chain: LGASIICNKIPGLAPRQRAICQSRPDAIIVIGEGSQMGLDECQFQFRNGRWNCSALGERTVFGKELKVGSREAAFTYAIIAAGVAHAITAACTQGNLSDCGCDKEKQGQYHRDEGWKWGGCSADIRYGIGFAKVFVDAREIKQNARTLMNLHNNEAGRKILEENMKLECKCHGVSGSCTTKTCWTTLPQFRELGYVLKDKYNEAVH
modifications: left off: small tags and cut ends
notes: smaller NTD variant lacking the linker region

Reck binding (anti-V5/anti-HA PLA signal) (HA-Reck): did not bind Reck
B2: Wnt7a^1-212: smaller NTD variant lacking the linker region (protein)
chain: LGASIICNKIPGLAPRQRAICQSRPDAIIVIGEGSQMGLDECQFQFRNGRWNCSALGERTVFGKELKVGSREAAFTYAIIAAGVAHAITAACTQGNLSDCGCDKEKQGQYHRDEGWKWGGCSADIRYGIGFAKVFVDAREIKQNARTLMNLHNNEAGRKILEENMKLECKCHGVSGSCTTK
modifications: left off: small tags and cut ends
notes: as for B1

B3: Wnt7a-V5: V5-tagged Wnt7a ligand transiently expressed in cells (protein)
chain: LGASIICNKIPGLAPRQRAICQSRPDAIIVIGEGSQMGLDECQFQFRNGRWNCSALGERTVFGKELKVGSREAAFTYAIIAAGVAHAITAACTQGNLSDCGCDKEKQGQYHRDEGWKWGGCSADIRYGIGFAKVFVDAREIKQNARTLMNLHNNEAGRKILEENMKLECKCHGVSGSCTTKTCWTTLPQFRELGYVLKDKYNEAVHVEPVRASRNKRPTFLKIKKPLSYRKPMDTDLVYIEKSPNYCEEDPVTGSVGTQGRACNKTAPQASGCDLMCCGRGYNTHQYARVWQCNCKFHWCCYVKCNTCSERTEMYTCK
modifications: left off: small tags and cut ends
notes: V5-tagged Wnt7a ligand transiently expressed in cells
immunodetection at the plasma membrane ([1]; GPR124−/−;RECK−/− cells): not at those of GPR124^−/−;RECK^−/− cells
immunodetection at the plasma membrane ([1]; WT, FZ1-10−/− and LRP5−/−;LRP6−/− cells): could be immunodetected at the plasma membrane

Reck binding (anti-V5/anti-HA PLA signal) (HA-Reck): did not
B4: Wnt7a′: garbled label of a Wnt7a domain variant, probably the C-terminal domain alone (protein)
chain: LGASIICNKIPGLAPRQRAICQSRPDAIIVIGEGSQMGLDECQFQFRNGRWNCSALGERTVFGKELKVGSREAAFTYAIIAAGVAHAITAACTQGNLSDCGCDKEKQGQYHRDEGWKWGGCSADIRYGIGFAKVFVDAREIKQNARTLMNLHNNEAGRKILEENMKLECKCHGVSGSCTTKTCWTTLPQFRELGYVLKDKYNEAVHVEPVRASRNKRPTFLKIKKPLSYRKPMDTDLVYIEKSPNYCEEDPVTGSVGTQGRACNKTAPQASGCDLMCCGRGYNTHQYARVWQCNCKFHWCCYVKCNTCSERTEMYTCK

Reck binding (anti-V5/anti-HA PLA signal) (HA-Reck): bound Reck efficiently
B5: Wnt7a^S206A: mutant Wnt7a incapable of being palmitoylated at Serine 206 (protein)
chain: LGASIICNKIPGLAPRQRAICQSRPDAIIVIGEGSQMGLDECQFQFRNGRWNCSALGERTVFGKELKVGSREAAFTYAIIAAGVAHAITAACTQGNLSDCGCDKEKQGQYHRDEGWKWGGCSADIRYGIGFAKVFVDAREIKQNARTLMNLHNNEAGRKILEENMKLECKCHGVAGSCTTKTCWTTLPQFRELGYVLKDKYNEAVHVEPVRASRNKRPTFLKIKKPLSYRKPMDTDLVYIEKSPNYCEEDPVTGSVGTQGRACNKTAPQASGCDLMCCGRGYNTHQYARVWQCNCKFHWCCYVKCNTCSERTEMYTCK
modifications: left off: small tags and cut ends
